Test results reported in patent publication US20230399390A1 (NOVAGO THERAPEUTICS, published 2023).
One block for each binder: values may come before it.

Tests used:
[1] = target: T1, rat Nogo-A d20plus region, recombinantly produced in E. coli (rat, UniProt Q9JK11 520-843, limits assumed); assay: ELISA, coated rat d20plus
T1 construct: domain: d20plus; also called rat d20plus; rat peptide d20plus
T1 sequence (looked up): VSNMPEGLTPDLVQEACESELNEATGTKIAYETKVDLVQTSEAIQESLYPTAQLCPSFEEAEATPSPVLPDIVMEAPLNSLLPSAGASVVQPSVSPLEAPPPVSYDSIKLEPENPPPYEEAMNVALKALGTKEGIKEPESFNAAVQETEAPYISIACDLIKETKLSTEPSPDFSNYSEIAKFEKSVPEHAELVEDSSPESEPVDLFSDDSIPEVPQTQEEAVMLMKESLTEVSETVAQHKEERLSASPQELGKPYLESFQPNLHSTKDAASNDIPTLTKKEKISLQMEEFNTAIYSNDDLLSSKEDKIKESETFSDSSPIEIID
Source text: (§1) The neurite outgrowth inhibitor Nogo-A contains 3 inhibitory regions. Two are shared with the splice variant Nogo-B (Nogo-66 located between the two transmembrane regions and the NIR domain at the tip of the N-terminus) and one is shared with the splice variant Nogo-C (Nogo-66). The unique, highly inhibitory domain for neurite outgrowth of Nogo-A is located in the exon 3 of Nogo-A and is called delta 20 region (d20; human aa position 566-748) (Oertle et al., J. Neurosci. 23 (2003), 5393-5406). To confirm the binding properties of antibodies NG004 NG034 and to monitor for cross-reactivity to other species like rat, an ELISA with a fragment containing the d20 region plus some additional amino acids C- and N-terminal of the inhibitory region (human aa position 543-866) was performed. This fragment is called rat or human d20plus and is recombinantly produced in E. coli. To examine that the antibody binds strongly to the d20plus region and to compare the binding properties of the subject antibodies NG004 and NG034 to the already known antibodies (11C7 and Ozanezumab) the ELISA was used and EC₅₀ values were compared.
(§2) The ELISA is performed according to a standard protocol (Engvall & Perlmann, J. Immunol. 109 (1972), 129-135, Engvall & Perlmann, Immunochemistry 8 (1971), 871-874). […] The readouts are performed on the Tecan Sparc plate reader.

[2] = target: T2, human Nogo-A d20plus region (human aa position 543-866), recombinantly produced in E. coli (human, UniProt Q9NQC3 543-866); assay: ELISA, coated human d20plus
T2 construct: range 543-866; also called human d20plus; hu d20+
T2 sequence (looked up): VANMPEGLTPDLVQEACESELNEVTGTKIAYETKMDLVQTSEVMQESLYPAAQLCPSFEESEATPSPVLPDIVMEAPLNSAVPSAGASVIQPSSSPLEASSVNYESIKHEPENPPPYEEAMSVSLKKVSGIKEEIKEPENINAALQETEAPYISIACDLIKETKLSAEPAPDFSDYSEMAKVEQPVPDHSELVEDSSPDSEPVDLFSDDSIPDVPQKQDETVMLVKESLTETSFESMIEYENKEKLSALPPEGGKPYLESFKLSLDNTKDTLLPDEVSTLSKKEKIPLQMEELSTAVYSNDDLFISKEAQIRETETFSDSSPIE
Source text: as §1, §2

[3] = target: T2, human Nogo-A d20plus region (human aa …); assay: ELISA, coated d20plus (human, as read from the context), internal standard
[4] = target: T2, human Nogo-A d20plus region (human aa …); assay: ELISA, plate coated with 3 ug/ml human d20plus
Source text: as §1, §2

[5] = target: T3, peptide 35: 137-EPENINAALQETEAP-151 (human); assay: pepscan, 15-mer peptides on nitrocellulose, NG004 at 1 ug/ml
T3 construct: Spotted on a nitrocellulose membrane; The range counts on the d20plus region; also called spot 35
T3 peptide: EPENINAALQETEAP
Procedure: (§3) Epitope mapping of NG004 was performed using scans of overlapping peptides. The sequences of the d20plus region of Nogo-A (aa 543-866 of human Nogo-A) were synthesized as linear 15-mer peptides with an 11 amino acid overlap between individual peptides. Those peptides were spotted onto nitrocellulose membranes (JPT Peptide Technologies, Berlin, Germany). The membrane was activated for 5 min in methanol and washed in TBS for 10 min at RT. Non-specific binding sites were blocked for 2 hours at RT with Roti®-Block (Carl Roth GmbH+Co. KG, Karlsruhe, Germany). NG004 (1 μg/ml) was incubated in Roti®-Block for 3 h at room temperature. Binding of primary antibody was determined using HRP-conjugated donkey anti-human IgG secondary antibody. Blots were developed and evaluated using ECL and ImageQuant 350 detection (GE Healthcare, Otelfingen, Switzerland).

[6] = target: T4, peptide 36: 141-INAALQETEAPYISI-155 (human); assay: as above
T4 construct: Spotted on a nitrocellulose membrane; The range counts on the d20plus region; also called spot 36
T4 peptide: INAALQETEAPYISI
Procedure: as §3

[7] = target: T5, peptide 34: 133-EEIKEPENINAALQE-147 (human); assay: as above
T5 construct: Spotted on a nitrocellulose membrane; The range counts on the d20plus region, not on full-length Nogo-A; also called spot 34
T5 peptide: EEIKEPENINAALQE
Procedure: as §3

EC50 [1]: 0.229 nM
EC50 [2]: 0.298 nM
B1: anti-Nogo-A specific human antibody NG034 (antibody, V domains shown)
VH: EVQLVETGGGLVPPGGSLRLSCAASGFTFTNYSMHWVRLAPGKRLEYISAISSDGGDPFYASSVKGRVAISRDNSKKTLYLQMGRLRPEDTAVYYCVSDAFDVWGQGTMVTVSS
VL: EIVLTQSPLSLSVTLGQPASISCRSSQSLLYSNGNTYLNWFQQRPGQSPRRLLYRVSNRDSGVPDRFSGSGSGTHFTLKISRVEAEDVGVYYCMQGTHWPRTFGQGTKVEIK

EC50 [3]: 0.2 nM
B2: Ozanezumab (antibody, V domains shown)
VH: QVQLVQSGAEVKKPGASVKVSCKASGYTFTSYWMHWVRQAPGQGLEWIGNINPSNGGTNYNEKFKSKATMTRDTSTSTAYMELSSLRSEDTAVYYCELMQGYWGQGTLVTVSS
VL: DIVMTQSPLSNPVTLGQPVSISCRSSKSLLYKDGKTYLNWFLQRPGQSPQLLIYLMSTRASGVPDRFSGGGSGTDFTLKISRVEAEDVGVYYCQQLVEYPLTFGQGTKLEIK

EC50 [4]: 0.26 nM
binding result [5]: binds
binding result [6]: binds
binding result [7]: binds
B3: anti-Nogo-A specific human antibody NG004 (antibody, V domains shown)
VH: EVQLVESGGGVVQPGRSLRLSCAASGFTFRSHAMHWVRQAPGKGLEWVAVTSYDGTNKYYADSVKGRFTISKDNSKNTLYLQMDSLRVEDTAVYYCARGRAVAGTREDYWGQGTLVTVSS
VL: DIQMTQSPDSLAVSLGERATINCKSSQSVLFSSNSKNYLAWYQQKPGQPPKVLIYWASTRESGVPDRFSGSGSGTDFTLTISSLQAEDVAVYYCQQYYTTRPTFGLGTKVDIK
notes: The neurite outgrowth assay used NG004.h4.m1 (human IgG4 S228P) and NG004.m1 (mouse IgG1); also called NG004.m1; NG004.h4.m1
